These results are taken from patent US20030114402A1, “Modulators of DNA cytosine-5 methyltransferase and methods for use thereof” (The Regents of the University of California, priority 1997, published 2003).

For data set [1] the following is noted: Jones, 1996; cited from earlier work.
For data set [2] the following is noted: Jones, 1996; cited from earlier work. The source holds these as a separate data set.
Data set [3] concerns the target T1, DCMTase (Mus musculus, UniProt P13864).
T1 construct: DCMTase was purified from mouse erythroleukemia cells as previously described; endogenous in cells; host or cells: mouse erythroleukemia (MEL) cells; enzyme purified from them
Nature of the data set: Steady-state kinetic assay: initial velocity, substrate inhibition, DNA length. It counts as biochemical. As to conditions: concentrations up to 30 times Km^AdoMet. On the procedure:
After preincubation at room temperature for up to 10 minutes, reactions were initiated by the addition of poly(dI.dC:dI.dC) and, if indicated, inhibitor DNA or reaction products. […] Single-stranded DNA was heated to 90° C. and quick cooled on ice, prior to initiation of the reaction. Freeze-thawed DNA produced equivalent results. Incubations were at 37° C. for 60 minutes. The poly(dI.dC:dI.dC) concentrations were 2.0, 4.0, 8.0, 16, 35, 80, 160, 250, 400, 700 and 1000 pM. In some experiments, GC-box a/b was the substrate, using 100 nM DCMTase and DNA concentrations of 0.20, 0.40, 1.0, 2.0, 4.0, 8.0, 15, 23 and 35 μM. […] The radioactivity above the background, determined from assays without added poly(dI.dC:dI.dC), was converted to initial velocities and expressed as picomoles of methyl groups transferred to poly(dI.dC:dI.dC) per hour and plotted in double reciprocal form. […]
The Michaelis-Menton equation was used for studies into DNA length contributions to catalysis using KaliedaGraph 2.1.2 (Synergy Software). […] All steady-state data were analyzed using regression analyses of the appropriate initial velocity equation, listed below, using the Cleland programs (Cleland, W. W., 1979, Statistical analysis of enzyme kinetic data. Methods in Enzymol. 63:103-138). […]

The target of data set [4] is T2, DNA cytosine-5 methyltransferase (DCMTase, Dnmt1) (Mus musculus, UniProt P13864 P13864:1-1620). Nature of the data set: inhibition; Kis, noncompetitive with poly(dIdC:dIdC); Kii 6800 +/- 1200 nM; Tris pH 8.0, 37 C. Conditions: tags: none; purified from mouse erythroleukemia (MEL) cells. On the procedure:
For these reasons it was presumed that single-stranded GC-box substrates could act as dead-end inhibitors of the reaction with poly(dI.dC:dI.dC). Dead-end inhibitors can provide a strong methodology for assessing whether a kinetic mechanism is random or ordered. Inhibition of poly(dI.dC:dI.dC) methylation by single-stranded GC-box b was studied at 15 μM AdoMet. The data were best fit by equation 5, a standard equation for noncompetitive inhibition, and generated the intersecting double reciprocal pattern shown in FIG. 13. The inhibition constants were determined to be Kᵢₛ=3.6+/−1.5 μM and Kᵢᵢ=6.8+/−1.2 μM (Table 4). Kᵢᵢ is the inhibition constant associated with an intercept effect and Kᵢₛ is the inhibition constant associated with a slope effect from families of double reciprocal plots.

The target in data set [5] is T2, DNA cytosine-5 methyltransferase …. Nature of the data set: EMSA; unit printed as mM (text indicates micromolar). As to conditions: tags: none; purified from mouse erythroleukemia (MEL) cells. On the procedure: Gel mobility shift assays (GMSA) were performed with minor revisions to the original procedures (Fried, M., & Crothers, D. M., 1981, Equilibria and kinetics of the lac repressor-operator interactions by polyacrylamide gel electrophoresis, Nucleic Acids Res. 9:6505-6525; Garner, M. M. & Revzin, A., 1981, A gel electrophoresis method for quantifying the binding proteins to specific DNA regions: applications to components of the Escherichia coli lactose operon regulatory system, Nucleic Acids Res. 13:3047-3060). All reactions were done in 100 mM Hepes pH 7.4, 10 mM EDTA, 10 mM DTT, […], 5% glycerol using the indicated P-labeled DNA and DCMTase concentrations, incubated on ice for 5 minutes and loaded on a 1×TBE(89 mM Tris-HCl pH 8.3, 89 mM boric acid, 2 mM EDTA), 6% polyacrylamide gel. Electrophoresis was done at 250 V, 9 mA for 2 hours at 4° C. and the dried gel was exposed to film overnight. The reaction conditions for buffer, temperature, incubation time, cofactor addition and gel composition have all been optimized. Only slightly better complex resolution was obtained under the listed conditions compared to a 10 minute incubation at 37° C. prior to gel loading at room temperature and containing either cofactor S-adenosyl-L-methionine, product S-adenosyl-L-homocysteine, or the AdoMet analog sinefungin. Hepes reaction buffer at pH 7.4 produced sharper banding than Tris-HCl at pH 8.0. […] Subsequent assays used a limiting and constant enzyme concentration with varying DNA concentrations.
(§1) Steady-state kinetic analyses of the DCMTase with the same 30 base-pair DNA substrates used in these studies indicate that Kₘ^DNA is 1000- to 50,000-fold higher (Flynn, J., et al., 1996, Murine DNA cytosine-C5 methyltransferase: Pre-steady- and steady-state kinetic analyses with regulatory DNA sequences, Biochemistry 35:7308-7315) than the DNA concentrations used to generate FIG. 2 and used by Reale et al, 1995, supra. […] Therefore, the stability of protein:DNA was determined by keeping the enzyme at a constant concentration (100 nM) and varying the amount of added DNA (Dubey & Roberts, 1992, supra).
In general terms: Mobility shift assays separate free from complexed probe on a gel.

For data set [6] the target is unchanged. Nature of the data set: EMSA; unit printed as mM (text indicates micromolar); free enzyme. Conditions: tags: none; purified from mouse erythroleukemia (MEL) cells. On the procedure:
(§2) Gel mobility shift assays (GMSA) were performed with minor revisions to the original procedures (Fried, M., & Crothers, D. M., 1981, Equilibria and kinetics of the lac repressor-operator interactions by polyacrylamide gel electrophoresis, Nucleic Acids Res. 9:6505-6525; Garner, M. M. & Revzin, A., 1981, A gel electrophoresis method for quantifying the binding proteins to specific DNA regions: applications to components of the Escherichia coli lactose operon regulatory system, Nucleic Acids Res. 13:3047-3060). […]
as §1

For data set [7] the target is unchanged. Nature of the data set: inhibition; Kii, uncompetitive with poly(dIdC:dIdC); 25 +/- 10 nM competitive with AdoMet; calculated KI 2.5 nM for DCMTase:poly(dIdC:dIdC) complex; Tris pH 8.0, 10 mM EDTA. Conditions: tags: none; purified from mouse erythroleukemia (MEL) cells.
The target is the same in data set [8]. Nature of the data set: inhibition; substrate inhibition; KmDNA 0.31 +/- 0.13 µM. As to conditions: tags: none; purified from mouse erythroleukemia (MEL) cells; label: 32P (gel shift). On the procedure: To distinguish between this and alternative explanations, a short 30 base-pair DNA substrate was tested for inhibition at high concentrations. […] Initial velocity data for both substrates were fit to equation 1, which is a standard equation for analyzing substrate inhibition. Kₘ^DNA was determined to be 5.5+/−0.9 pM and 0.31+/−0.13 μM, and Kᵢ^DNA was 1010+/−170 pM and 43+/−22 μM for poly(dI.dC:dI.dC) and GC-box a/b, respectively (Table 3). In both cases, DNA concentrations greater than 20 times Kₘ^DNA caused substrate inhibition. AdoMet utilization was calculated to be less than 0.5%. Product inhibition by S-adenosyl homocysteine formation is therefore unlikely. AdoMet substrate inhibition was not observed at concentrations up to 30 times Kₘ^AdoMet. The substrate inhibition observed implicates a second DNA molecule binding to the enzyme and inhibiting catalysis.

Data set [9] has the same target. Briefly: EMSA; unit printed as mM (text indicates micromolar); Hepes pH 7.4, 10 mM EDTA, on ice. As to conditions: tags: none; purified from mouse erythroleukemia (MEL) cells; label: 32P (gel shift). On the procedure:
as §2, §1

T2 sequence (P13864 whole entry, one chain of several): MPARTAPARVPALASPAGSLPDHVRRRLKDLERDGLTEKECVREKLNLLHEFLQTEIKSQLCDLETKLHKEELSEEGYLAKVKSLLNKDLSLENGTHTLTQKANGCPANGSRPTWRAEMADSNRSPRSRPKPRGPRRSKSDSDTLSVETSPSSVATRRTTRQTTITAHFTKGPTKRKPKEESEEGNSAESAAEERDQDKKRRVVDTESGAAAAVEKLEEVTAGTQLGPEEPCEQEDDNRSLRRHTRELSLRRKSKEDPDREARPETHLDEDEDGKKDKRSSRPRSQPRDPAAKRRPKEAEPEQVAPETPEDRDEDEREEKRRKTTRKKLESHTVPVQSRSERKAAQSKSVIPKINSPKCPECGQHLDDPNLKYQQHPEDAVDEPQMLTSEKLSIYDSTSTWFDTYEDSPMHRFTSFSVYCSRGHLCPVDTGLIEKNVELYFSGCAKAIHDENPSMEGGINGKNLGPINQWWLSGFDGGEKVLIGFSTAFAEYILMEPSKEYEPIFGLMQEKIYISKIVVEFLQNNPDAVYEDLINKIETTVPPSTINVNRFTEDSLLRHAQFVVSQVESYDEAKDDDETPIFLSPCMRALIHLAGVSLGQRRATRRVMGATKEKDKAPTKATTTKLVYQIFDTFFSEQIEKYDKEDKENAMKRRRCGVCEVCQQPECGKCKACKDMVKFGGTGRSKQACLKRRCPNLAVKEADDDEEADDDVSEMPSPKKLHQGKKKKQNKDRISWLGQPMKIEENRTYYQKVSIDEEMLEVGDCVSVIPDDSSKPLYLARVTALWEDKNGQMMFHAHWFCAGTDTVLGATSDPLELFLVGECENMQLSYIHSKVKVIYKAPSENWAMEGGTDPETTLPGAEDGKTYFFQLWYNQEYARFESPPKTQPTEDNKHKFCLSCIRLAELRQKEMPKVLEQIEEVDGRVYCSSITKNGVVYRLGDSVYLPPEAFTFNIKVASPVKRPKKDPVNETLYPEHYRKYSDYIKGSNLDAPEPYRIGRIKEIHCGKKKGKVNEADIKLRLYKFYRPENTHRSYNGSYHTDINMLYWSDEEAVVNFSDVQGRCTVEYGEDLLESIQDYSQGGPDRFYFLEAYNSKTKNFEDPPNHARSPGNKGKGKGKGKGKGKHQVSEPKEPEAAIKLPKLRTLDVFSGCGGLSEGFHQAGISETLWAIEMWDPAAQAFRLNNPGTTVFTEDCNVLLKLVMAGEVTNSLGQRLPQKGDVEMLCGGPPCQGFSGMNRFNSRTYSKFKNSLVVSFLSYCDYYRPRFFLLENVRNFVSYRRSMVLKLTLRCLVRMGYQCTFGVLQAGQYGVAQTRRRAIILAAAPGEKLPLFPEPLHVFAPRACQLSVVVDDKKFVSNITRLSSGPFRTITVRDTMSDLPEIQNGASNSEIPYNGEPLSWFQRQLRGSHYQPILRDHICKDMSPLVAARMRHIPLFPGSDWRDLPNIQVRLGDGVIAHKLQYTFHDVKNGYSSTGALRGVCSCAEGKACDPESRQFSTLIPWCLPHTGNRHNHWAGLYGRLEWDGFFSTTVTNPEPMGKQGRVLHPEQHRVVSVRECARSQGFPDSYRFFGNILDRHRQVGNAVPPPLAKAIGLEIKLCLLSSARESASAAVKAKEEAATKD
T1 sequence (P13864 whole entry): as the sequence (P13864 whole entry, one chain of several) above

Regarding `Nc1ncn([C@H]2C[C@H](O)[C@@H](CO)O2)c(=O)n1` [5-Aza-deoxycytidine, 5-aza-2′-deoxycytidine], the stability in solution entry in data set [1] is on record as “unstable in solution”. In data set [2], the carcinogenicity and mutagenicity result is given as “may be carcinogenic as well as mutagenic”.

As for `C[S+](CC[C@H](N)C(=O)[O-])C[C@H]1O[C@@H](n2cnc3c(N)ncnc32)[C@H](O)[C@@H]1O` (stereo partly drawn) [AdoMet, S-adenosyl-L-methionine], the AdoMet substrate inhibition result in data set [3] was “not observed”.

By Kd is commonly meant a measure of binding affinity in units of concentration. CTGGATCCTTGCCCCGCCCCTTGAATTCCC (ssDNA) [GC-box b] came in with a Ki in data set [4] of 3600 nM. Moreover, the Kd in data set [5] was determined as 1300 nM.

As for CTGGATCCTTGCCCCGCCCCTTGAATTCCC (ssDNA, 5mC at position 15 (central CpG)) [GC-box bMET], in data set [6], the Kd is 880 nM. In addition, the Ki in data set [7] was 20 nM.

B1: GC-box a/b (dsDNA)
DNA 1: GGGAATTCAAGGGGCGGGGCAAGGATCCAG
DNA 2: CTGGATCCTTGCCCCGCCCCTTGAATTCCC
Regarding B1, the Ki in data set [8] is 43000 nM. Further, the Kd in data set [9] is 420 nM.
